Measurements: patent publication US20190161555A1 (ALLIGATOR BIOSCIENCE, published 2019)

Key:
[1] = molecular target: CD40 (Ancell) (UniProt P25942 21-193, limits assumed); experiment: ELISA, CD40 coated
Method: (§1) ELISA plates were coated with human OX40 (R&D Systems, 3388-OX), CD40 (Ancell), or CD137 (R&D Systems) at 0.1 or 0.5 μg/ml. The ELISA plates were washed with PBST and then blocked with PBST+2% BSA for 1 h at room temperature and then washed again with PBST. The antibodies were added in dilution series to the ELISA plates for 1 h at room temperature and then washed with PBST. Binding was detected using goat anti human kappa light chain HRP, incubated for 1 h at room temperature. SuperSignal Pico Luminescent was used as substrate and luminescence was measured using Fluostar Optima.

[2] = molecular target: T1, murine OX40 (murine, UniProt P47741 20-211, limits assumed); experiment: ELISA
T1 construct: also called mouse OX40
T1 sequence (looked up): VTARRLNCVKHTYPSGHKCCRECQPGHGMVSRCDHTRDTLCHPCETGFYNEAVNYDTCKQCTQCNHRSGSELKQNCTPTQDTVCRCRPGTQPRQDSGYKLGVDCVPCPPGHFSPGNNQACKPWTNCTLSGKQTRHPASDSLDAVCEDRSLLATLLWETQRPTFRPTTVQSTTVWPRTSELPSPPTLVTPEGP

[3] = molecular target: CD137 (R&D Systems) (UniProt Q07011 24-186, limits assumed); experiment: ELISA, CD137 coated
CD137 (R&D Systems), sequence (Q07011 24-186 limits assumed): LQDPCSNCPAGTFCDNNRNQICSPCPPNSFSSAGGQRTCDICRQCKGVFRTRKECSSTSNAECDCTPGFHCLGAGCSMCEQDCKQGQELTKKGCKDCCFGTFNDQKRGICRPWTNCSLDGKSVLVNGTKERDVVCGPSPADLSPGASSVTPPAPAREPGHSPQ
Method: as §1

Measured: binding result

CD40 (Ancell), sequence (P25942 21-193 limits assumed): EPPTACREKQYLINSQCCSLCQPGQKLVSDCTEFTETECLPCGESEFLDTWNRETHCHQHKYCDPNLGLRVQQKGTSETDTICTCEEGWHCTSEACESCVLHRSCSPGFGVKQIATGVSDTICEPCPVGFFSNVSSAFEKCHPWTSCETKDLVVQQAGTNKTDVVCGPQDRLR

B1: 1514/1515 (antibody, V domains shown)
VH: EVQLLESGGGLVQPGGSLRLSCAASGFTFGYYYMSWVRQAPGKGLEWVSGISSYGSYTYYADSVKGRFTISRDNSKNTLYLQMNSLRAEDTAVYYCARSGYSNWANSFDYWGQGTLVTVSS
VL: DIQMTQSPSSLSASVGDRVTITCRASQSISSYLNWYQQKPGKAPKLLIYAASSLQSGVPSRFSGSGSGTDFTLTISSLQPEDFATYYCQQGDYTLFTFGQGTKLEIK
notes: OX40 antibody, tested as IgG
no binding: all assays above

B2: 1170/1171 (antibody, V domains shown)
VH: EVQLLESGGGLVQPGGSLRLSCAASGFTFGGYYMSWVRQAPGKGLEWVSYIPGSGGSTYYADSVKGRFTISRDNSKNTLYLQMNSLRAEDTAVYYCARYDYYWMDYWGQGTLVTVSS
VL: DIQMTQSPSSLSASVGDRVTITCRASQSISSYLNWYQQKPGKAPKLLIYAASSLQSGVPSRFSGSGSGTDFTLTISSLQPEDFATYYCQQGHGSYPHTFGQGTKLEIK
notes: OX40 antibody, tested as IgG
no binding: all assays above

B3: 1490/1135 (antibody, V domains shown)
VH: EVQLLESGGGLVQPGGSLRLSCAASGFTFSSYAMSWVRQAPGKGLEWVSGISYYGGYTYYADSVKGRFTISRDNSKNTLYLQMNSLRAEDTAVYYCARYYPHHYIDYWGQGTLVTVSS
VL: not shown
notes: OX40 antibody, tested as IgG
no binding: all assays above
